The results in this text go back to paper PMC11754096.

The target of the assay is T-complex protein ring complex (TRiC), endogenous (human (endogenous in HEK293 cells)) (UniProt P17987). The assay is described as follows: cryo-EM structure; in situ cryo-electron tomography of FIB-milled HEK Flp-In T-Rex 293 cells, template matching, subtomogram averaging and classification; open TRiC; untreated cells and cells treated with 100 µM HHT for 2 h.

The substance prefoldin (PFD), endogenous (complex) yielded a percent of all TRiC with a single PFD (HHT-treated cells) of 18%, a percent of all TRiC with a single PFD (untreated cells) of 12%, a percent of all TRiC with two PFD (HHT-treated cells) of 2% and a percent of all TRiC with two PFD (untreated cells) of 1%.
